Reference: paper PMC12671738
Where “and” joins values, the source holds several entries; their conditions need not be identical. Equal entries are not always repeated.

How the values were obtained:
[1] = molecular target: p33 protein of citrus tristeza virus (CTV) (citrus tristeza virus); assay: SDS-PAGE and western blot of SDS-resistant oligomers; p33 immunoprecipitated from N. benthamiana leaf lysate with anti-p33 antibody on protein A magnetic beads, eluted in SDS loading buffer with 100 mM DTT and 8 M urea at 70 °C; blot with anti-p33 antibody
[2] = molecular target: p33 protein of citrus tristeza virus (CTV) (citrus tristeza virus); assay: SDS-PAGE and western blot of SDS-resistant oligomers; crude extract: leaf discs of agroinfiltrated N. benthamiana macerated directly in SDS loading buffer with 8 M urea; blot with anti-p33 antibody; empty vector as control

**Q.** For “p33 protein of citrus tristeza virus (CTV) (natural protein)”, which stoichiometry N [1] is on record?
**A.** 2 and 4

**Q.** What about the stoichiometry N [2] of the same substance?
**A.** 2 and 4
